From patent publication US20120195831A1 (published 2012) come the findings set out here.

B1: PO-1C9-C4 (antibody, V domains shown)
VH: QVQLQQPGSELVRPGASVKLSCKASGYTFTIFWIHWVKQRPGQGLEWIGNIYPGSGGTNYDEKFKSKATLTVDTFSSTAYMQLSSLTSEDSAVYYCTRWGTGKDYWGQGTTLTVSS
VL: DIVLTQSPAIMSASPGEKVTMTCRARSSVSSSYLHWYQQKPGSSPKLWIYSTSNLALGVPARFSGSGSGTSYSLTISSVEAEDAATYYCQQYDSSPFTFGTGTKLEIKR
notes: Purified mouse IgG from a hybridoma; also called PO-1C9-C4-HC; PO-1C9-C4-LC
B2: 588F41 (antibody, V domains shown)
VH: EVQLQQSGPELVKPGASVKMSCKASGYTFTSYVMHWVKQKPGQGLEWLGYINPYNDGTKYNEKFKGMATLTSDKSSSTAYMELISLTSEDSAVYYCAREASYGNPFAYWGQGTLVTVSA
VL: DIVMTQSPASLSASVGETVTITCRTSENIYSYLAWFQQKQGNSPQLLVYNTKTLAEGVPSRFSGSGSGTQFSLKINSLQPEDFGNYYCQHHYDTPWTFGGGTKLEIKR
notes: Purified mouse IgG from a hybridoma; also called 588F41-HC; 588F41-LC
B3: 588F42 (antibody, V domains shown)
VH: B2 VH with M67K
VL: DIVMTQSPASLSASVGETVTITCRTSENIYSYLAWFQQKQGNSPQLLVYNTKTLAEGVPSRFSGSGSGTQFSLKINSLQPEDFGNYYCQHHYDTPWTFGGGTKLEIK
notes: Purified mouse IgG from a hybridoma; also called 588F42-HC; 588F42-LC
B4: 588E10 (antibody, V domains shown)
VH: EVQLQQSGPKLVGPGESVKISCKGSGYTFTDYGMHWVKQSHAKRLEWIGVITIYDGHTNYNQNFKGKAALTVDKSSNTAYLELARMTSEDSAIYYCARGDYDLFWYLDVWGAGTTLTVSS
VL: DVVMTQTPLSLTVSLGDQASISCRSSQNIKHSDGNTYLEWYLQKPGQSPKLLIYKVSNRFSGVPDRFSGSGSGTDFTLKISRVEAEDLGVYFCFQGSHVPLTFGAGTKLELKR
notes: Purified mouse IgG from a hybridoma; also called 588E10-HC; 588E10-LC
B5: 588E14 (antibody, V domains shown)
VH: B4 VH with K10E, T28A, T115S, L116V
VL: B4 VL with V2I
notes: Purified mouse IgG from a hybridoma; also called 588E14-HC; 588E14-LC
B6: 588E22 (antibody, V domains shown)
VH: B4 VH with E1D, Q6E, K10E, L81P, L116V
VL: B4 VL
notes: Purified mouse IgG from a hybridoma; also called 588E22-HC; 588E22-LC
B7: 588F7 (antibody, V domains shown)
VH: QVQLQQPGSVLVRPGASVKLSCKASGYTFTNSWILWAKRRPGQGLEWIGEIHPNSGNTNYNEKFKGQATLTVDTSSTTAYVDLSRLTSEDSAVYYCARYEGHWGQGTLVTVSA
VL: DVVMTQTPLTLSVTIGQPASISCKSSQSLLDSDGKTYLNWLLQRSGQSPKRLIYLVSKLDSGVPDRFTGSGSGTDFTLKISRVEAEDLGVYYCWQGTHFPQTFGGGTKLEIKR
notes: Purified mouse IgG from a hybridoma; also called 588F7-HC; 588F7-LC

Where a chain is given by its changes, count along the chain named.

T6 sequence (P21860 20-643 limits assumed): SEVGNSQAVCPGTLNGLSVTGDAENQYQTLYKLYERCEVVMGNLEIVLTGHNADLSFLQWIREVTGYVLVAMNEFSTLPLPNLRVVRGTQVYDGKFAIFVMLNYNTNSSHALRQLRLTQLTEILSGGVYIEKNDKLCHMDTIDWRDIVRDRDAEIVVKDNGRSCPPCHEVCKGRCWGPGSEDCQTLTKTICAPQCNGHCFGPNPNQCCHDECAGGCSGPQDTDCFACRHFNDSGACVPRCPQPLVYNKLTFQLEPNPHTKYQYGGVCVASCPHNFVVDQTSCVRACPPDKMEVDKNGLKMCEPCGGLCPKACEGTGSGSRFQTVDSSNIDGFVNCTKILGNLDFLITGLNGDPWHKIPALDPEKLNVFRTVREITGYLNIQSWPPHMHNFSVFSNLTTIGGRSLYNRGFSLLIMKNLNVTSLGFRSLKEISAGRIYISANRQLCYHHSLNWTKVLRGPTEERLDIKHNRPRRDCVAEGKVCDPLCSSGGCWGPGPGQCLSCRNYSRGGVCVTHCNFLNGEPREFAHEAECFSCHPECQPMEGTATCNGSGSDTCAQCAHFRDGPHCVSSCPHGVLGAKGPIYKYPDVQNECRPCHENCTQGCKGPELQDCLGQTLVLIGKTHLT
T4 sequence (Q15303 26-1308 limits assumed): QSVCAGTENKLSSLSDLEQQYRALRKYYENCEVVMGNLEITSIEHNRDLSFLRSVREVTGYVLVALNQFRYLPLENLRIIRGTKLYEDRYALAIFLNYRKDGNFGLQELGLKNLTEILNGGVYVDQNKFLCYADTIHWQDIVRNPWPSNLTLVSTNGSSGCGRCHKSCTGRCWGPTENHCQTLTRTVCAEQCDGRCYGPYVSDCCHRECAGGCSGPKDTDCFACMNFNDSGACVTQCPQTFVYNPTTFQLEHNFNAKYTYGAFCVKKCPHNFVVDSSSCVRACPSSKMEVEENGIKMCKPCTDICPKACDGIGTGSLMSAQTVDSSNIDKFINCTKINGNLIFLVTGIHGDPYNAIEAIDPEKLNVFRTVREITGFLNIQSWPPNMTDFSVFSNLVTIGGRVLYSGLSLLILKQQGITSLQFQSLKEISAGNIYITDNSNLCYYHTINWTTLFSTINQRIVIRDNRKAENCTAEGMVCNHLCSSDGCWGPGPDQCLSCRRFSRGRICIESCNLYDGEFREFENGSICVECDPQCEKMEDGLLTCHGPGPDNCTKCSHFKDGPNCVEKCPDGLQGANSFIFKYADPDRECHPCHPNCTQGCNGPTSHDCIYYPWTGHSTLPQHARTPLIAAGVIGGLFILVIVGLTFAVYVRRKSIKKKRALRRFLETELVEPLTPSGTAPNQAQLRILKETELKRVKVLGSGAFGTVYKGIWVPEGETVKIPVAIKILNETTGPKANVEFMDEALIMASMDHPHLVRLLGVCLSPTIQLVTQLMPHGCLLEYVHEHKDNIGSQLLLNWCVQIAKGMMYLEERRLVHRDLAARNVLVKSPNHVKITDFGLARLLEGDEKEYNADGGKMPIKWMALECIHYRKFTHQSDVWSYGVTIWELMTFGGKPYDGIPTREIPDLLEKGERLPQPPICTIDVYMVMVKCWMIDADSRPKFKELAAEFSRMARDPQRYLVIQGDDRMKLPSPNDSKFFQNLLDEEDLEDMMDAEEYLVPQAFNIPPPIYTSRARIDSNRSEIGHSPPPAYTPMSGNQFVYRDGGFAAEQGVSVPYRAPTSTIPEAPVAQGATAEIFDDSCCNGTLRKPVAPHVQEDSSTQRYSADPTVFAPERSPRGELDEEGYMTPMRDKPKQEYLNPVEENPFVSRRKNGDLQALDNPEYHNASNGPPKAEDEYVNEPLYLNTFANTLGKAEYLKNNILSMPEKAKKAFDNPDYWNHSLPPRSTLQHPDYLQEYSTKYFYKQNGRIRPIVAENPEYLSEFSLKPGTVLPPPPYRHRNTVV

In the first assay the target is T1, Her3/Avi/His10 receptor (Homo sapiens (Human), UniProt P21860 20-643, limits assumed).
T1 construct: Soluble tagged receptor of the AlphaScreen assay; The antibodies are called anti-hHer3 there; not shown: Avi tag; His10 tag (ten histidines by its name)
T1 sequence (P21860 20-643 limits assumed): as the sequence (P21860 20-643 limits assumed) above
The assay is described as follows: AlphaScreen ligand blocking: antibody titrated against 10 nM biotinylated NRG-1 beta and 10 nM Her3/Avi/His10, % signal. How it is done: (§1) SDI or Genovac purified anti-hHer3 Mabs were serially diluted two-fold into an assay buffer made from 25 mM Hepes, 100 mM NaCl, 0.5% BSA and 0.05% Tween20 in an opaque/white, half-well area plate (Costar). Mouse IgG1 antibody was used as a negative control (Southern Biotech; cat #010201). Biotinylated NRG-1 beta ligand and Her3/Avi/His₁₀ receptor were added sequentially at 10 nM concentration to the assay plate containing serially diluted antibodies. This mixture of receptor, ligand and the antibodies was incubated at room temperature with gentle shaking for 90 minutes. AlphaScreen Streptavidin Donor beads and His-Nickel chelate Acceptor beads were added into the assay at a final concentration of 20 μg/ml each. The light sensitive beads were handled under chromagreen filtered light. The assay plates were covered with foil and incubated at room temperature with gentle shaking for 1 hour. The plates were read in PE EnVision plate reader equipped with an Alpha module (dedicated laser for excitation and designed to measure the signal above the well). Table 7 listed IC₅₀ values in ligand blocking that were estimated using four parameter curve fitting with concentration titration graphs (FIGS. 7 A&B).
B1 returned an IC50 of 2.9 nM.

The molecule B2 showed an IC50 of 1.17 nM.

For B3, the midpoint of inhibition, the IC50, lay at 3.03 nM.

Turning to B4, the IC50 turned out to be 2.92 nM.

B5 registered a half-inhibitory concentration (IC50) of 1.44 nM.

Turning to B6, inhibition was half-maximal at 2.08 nM (IC50).

The target in a further assay is T2, human Her3 receptor on cells (T47D, MCF7) (human, UniProt P21860 20-1342). The assay is described as follows: cell-based or functional assay.
T2 sequence (P21860 20-1342 limits assumed, stated change not applied): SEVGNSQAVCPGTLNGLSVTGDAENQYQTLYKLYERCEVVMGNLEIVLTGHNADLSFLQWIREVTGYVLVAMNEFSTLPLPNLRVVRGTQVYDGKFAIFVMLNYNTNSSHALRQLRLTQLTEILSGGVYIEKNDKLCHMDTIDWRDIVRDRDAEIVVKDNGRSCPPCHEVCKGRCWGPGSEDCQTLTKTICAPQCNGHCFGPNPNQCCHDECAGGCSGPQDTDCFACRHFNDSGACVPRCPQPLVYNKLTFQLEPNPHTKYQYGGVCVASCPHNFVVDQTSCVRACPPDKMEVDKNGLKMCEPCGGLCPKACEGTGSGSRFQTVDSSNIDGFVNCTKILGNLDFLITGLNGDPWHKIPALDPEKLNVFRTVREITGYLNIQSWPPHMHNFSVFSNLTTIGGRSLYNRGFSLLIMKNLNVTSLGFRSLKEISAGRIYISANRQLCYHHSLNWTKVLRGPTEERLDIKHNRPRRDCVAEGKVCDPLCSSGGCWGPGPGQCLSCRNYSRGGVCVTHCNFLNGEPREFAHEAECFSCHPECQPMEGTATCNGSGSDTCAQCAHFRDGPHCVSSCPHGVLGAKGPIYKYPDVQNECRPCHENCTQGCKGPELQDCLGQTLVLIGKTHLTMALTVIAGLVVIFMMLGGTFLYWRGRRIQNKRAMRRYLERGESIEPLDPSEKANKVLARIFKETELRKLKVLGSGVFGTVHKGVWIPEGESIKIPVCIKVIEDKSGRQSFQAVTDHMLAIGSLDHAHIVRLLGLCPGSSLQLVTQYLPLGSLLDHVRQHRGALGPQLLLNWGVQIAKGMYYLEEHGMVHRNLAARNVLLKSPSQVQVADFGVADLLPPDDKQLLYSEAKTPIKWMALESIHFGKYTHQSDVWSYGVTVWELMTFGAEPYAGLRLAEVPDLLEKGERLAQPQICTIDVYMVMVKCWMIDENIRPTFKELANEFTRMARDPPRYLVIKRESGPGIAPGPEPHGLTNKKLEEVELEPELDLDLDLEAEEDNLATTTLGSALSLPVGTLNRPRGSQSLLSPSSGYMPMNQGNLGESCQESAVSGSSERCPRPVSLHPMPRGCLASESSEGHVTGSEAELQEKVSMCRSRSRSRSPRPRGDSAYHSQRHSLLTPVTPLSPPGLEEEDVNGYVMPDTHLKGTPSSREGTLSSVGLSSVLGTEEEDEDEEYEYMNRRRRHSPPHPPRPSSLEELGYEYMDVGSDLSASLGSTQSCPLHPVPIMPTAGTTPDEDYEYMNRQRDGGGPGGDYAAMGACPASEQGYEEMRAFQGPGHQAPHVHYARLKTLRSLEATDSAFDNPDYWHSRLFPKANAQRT
B1: the “% Receptor Internalization (T47D cells, FACS)” value (“% Receptor Internalization” for short) turned out to be 41%.

As for B2, the “% Receptor Internalization” value stood at 59%.

With B3, the “% Receptor Internalization” value is 57%.

For B4, the “% Receptor Internalization” value was 51%.

Turning to B5, the “% Receptor Internalization” value stood at 52%.

B6: the “% Receptor Internalization” value amounted to 53%.

For the next assay, the target named is T2, human Her3 receptor on cells (T47D, …). The assay is described as follows: cell-based or functional assay. The source holds these as a separate data set.
Turning to B1, the “IC50 of pAKT inhibition (MCF7 cells stimulated with rhNRG1-β1, ELISA)” value (“IC50 of pAKT inhibition” for short) amounted to 9.47 nM.

Turning to B2, the “IC50 of pAKT inhibition” value stood at 2.05 nM.

Regarding B3, the “IC50 of pAKT inhibition” value worked out at 1.36 nM.

Turning to B4, the “IC50 of pAKT inhibition” value amounted to 0.14 nM.

As to B6, the “IC50 of pAKT inhibition” value was 90 pM.

For a further assay the target is unchanged. The assay can be described thus: cell-based or functional assay. This is another data set of the same source.
B1: the “IC50 of inhibition of pHer3 (MCF7 cells stimulated with rhNRG1-β1, ELISA)” value (from here on “IC50 of inhibition of pHer3”) came out at 6.99 nM.

For the molecule B2, the “IC50 of inhibition of pHer3” value worked out at 0.66 nM.

With B3, the “IC50 of inhibition of pHer3” value is 1.04 nM.

As for B4, the “IC50 of inhibition of pHer3” value amounted to 90 pM.

B5: the “IC50 of inhibition of pHer3” value was found to be 70 pM.

Consider B6, for which the “IC50 of inhibition of pHer3” value worked out at 90 pM.

The target is the same in a further assay. The assay can be described thus: cell-based or functional assay. The source holds these as a separate data set.
As to B1, the “IC50 of pERK inhibition (MCF7 cells stimulated with rhNRG1-β1, MSD)” value (shortened to “IC50 of pERK inhibition”) worked out at 4.62 nM.

Take B2: the “IC50 of pERK inhibition” value was 4.91 nM.

As to B3, the “IC50 of pERK inhibition” value was 1.8 nM.

As for B4, the “IC50 of pERK inhibition” value is 1.72 nM.

In the case of B5, the “IC50 of pERK inhibition” value is 1.82 nM.

On to B6, for which the “IC50 of pERK inhibition” value was determined as 1.44 nM.

The target of another assay is T3, Her2 on CHO cells (CHO-Her2) (UniProt P04626 23-1255, limits assumed).
T3 construct: whole, on cells
The assay can be described thus: FACS on CHO-Her2 cells, purified IgG, R-PE anti-mouse IgG. How it is done:
(§2) CHO-Her2, CHO-Her4, CHO-EGFR cells were harvested and resuspended in PBS, 2% FBS at a concentration of approximately 1×10⁶/ml. Cells were stained with purified IgGs at 4° C. for 40 min. Cells were washed with 4 mL PBS, 2% FBS, then centrifuged at 1200 rpm for 10 minutes. Supernatant was removed. Cells were stained with R-PE conjugated anti-mouse IgG at 4° C. for 30 min. Cells were washed with 4 mL PBS, 2% FBS, then centrifuged at 1200 rpm for 10 minutes. Supernatant was removed and cell pellets were fixed in 1% formaldehyde. Cells were analyzed on a FACS Calibur (BD Biosciences) by collecting 20,000 events from gate 1.
As for B1, the binding result is “no binding”.

Consider B7, for which the binding result is reported as “no binding”.

For B2, the binding result is listed as “no binding”.

As to B3, the binding result is “no binding”.

Take B4: the binding result was “no binding”.

With B5, the binding result is listed as “no binding”.

For B6, the binding result is reported as “no binding”.

Another assay deals with T1, Her3/Avi/His10 receptor. The assay can be described thus: AlphaScreen competition; antibody titrated against 10 nM biotinylated NRG-1 beta and 10 nM Her3/Avi/His10; n = 3. How it is done: as §1
In the case of B1, the IC50 is 2.7 nM.

As for B2, the IC50 came to 4.1 nM.

In turn, B3 returned an IC50 of 4.6 nM.

B4: the IC50 amounted to 4.9 nM.

As to B5, the IC50 is 2.3 nM.

B6 came in with an IC50 of 3.6 nM.

The next assay has as its target T4, Her4 on CHO cells (CHO-Her4) (UniProt Q15303 26-1308, limits assumed).
T4 construct: whole, on cells
The assay is described as follows: FACS on CHO-Her4 cells, purified IgG, R-PE anti-mouse IgG. As to the method:
as §2
Take B1: the binding result was “no binding”.

On to B7, for which the binding result is recorded as “no binding”.

On to B2, for which the binding result is listed as “no binding”.

For B3, the binding result is “no binding”.

Regarding B4, the binding result is on record as “no binding”.

On to B5, for which the binding result is reported as “no binding”.

With B6, the binding result is reported as “no binding”.

The next assay concerns the target T5, EGFR on CHO cells (CHO-EGFR) (UniProt P00533 25-1210, limits assumed).
T5 construct: whole, on cells
The assay can be described thus: FACS on CHO-EGFR cells, purified IgG, R-PE anti-mouse IgG. How it is done:
as §2
Regarding B1, the binding result is reported as “no binding”.

For B7, the binding result is listed as “no binding”.

On to B2, for which the binding result is listed as “no binding”.

For the molecule B3, the binding result is reported as “no binding”.

Turning to B4, the binding result was “no binding”.

In the case of B5, the binding result is “no binding”.

With B6, the binding result was “no binding”.

A further assay addresses T6, Recombinant Human Her3 (Her3/ErbB3 extracellular domain) (human, UniProt P21860 20-643).
T6 construct: Analyte of the BIAcore assay; also called Her3 ECD; human Her3/ErbB3 extracellular domain
The assay can be described thus: SPR (BIAcore), Mab captured by anti-IgG Fc on CM5 chip, recombinant human Her3 as analyte, 25 °C. How it is done:
All experiments were performed at 25° C. at a flow rate of 40 μl/min. To prepare a BIAcore assay, an anti-human IgG-Fc antibody (50 μg/ml each in acetate buffer, pH 5.0) was immobilized onto a carboxymethyl dextran sensorchip (CM5) using amine coupling procedures as described by the manufacturer. 10000 resonance units (RU) of anti-mouse IgG Fc antibodies were linked respectively onto Flowcells (FC) 1 and 2. Purified Mabs to be tested were diluted at a concentration of 5 μg/ml in 0.5% P20, HBS-EP buffer and injected on FC2 to reach 500 to 1000 RU. FC1 was used as the reference cell. Specific signals correspond to the difference of signals obtained on FC2 versus FC1. The analyte (Recombinant Human Her3, apparent molecular weight 97 kDa) was injected during 90 sec at 5 different concentrations (100, 50, 25, 12.5 and 6.25 nM) in 0.5% P20, HBS-EP buffer. These concentrations were prepared from stock solution in 0.5% P20, HBS-EP. The dissociation phase of the analyte was monitored over a 10 minutes period. Running buffer was also injected under the same conditions as a double reference. After each cycle (antibody+Her3 injection), both Flowcells were regenerated by injecting 20 to 45 μl of Glycine-HCl buffer pH 1.5. This regeneration is sufficient to eliminate all Mabs and Mabs/Her3 complexes captured on the sensorchip. Table 1 listed binding KD for Her3 binding monoclonal antibodies.
For the molecule B1, the Kd came to 2.4 nM.

For the molecule B2, the dissociation constant (Kd) amounted to 3.2 nM.

For the molecule B3, the Kd turned out to be 3.8 nM.

With B4, the Kd worked out at 3.31 nM.

Take B5: the Kd worked out at 3.04 nM.

As for B6, the Kd was determined as 2.78 nM.
